PMC6769508, “Cooperative Binding of KaiB to the KaiC Hexamer Ensures Accurate Circadian Clock Oscillation in Cyanobacteria” (International Journal of Molecular Sciences, 2019)
Several values for one entry are separate records, joined by “and”; a condition that tells them apart may be missing. Identical values can stand only once.

B1: TeKaiCDD, T. elongatus KaiC mutant with Ser431 and Thr432 substituted by aspartate residues (natural protein, Thermosynechococcus elongatus, UniProt Q79V60 1-518, looked up)
chain: MTNLPEHQSSPTEQSSAEVKKIPTMIEGFDDISHGGLPQGRTTLVSGTSGTGKTLFAVQFLYNGITIFNEPGIFVTFEESPQDIIKNALSFGWNLQSLIDQGKLFILDASPDPDGQEVAGDFDLSALIERIQYAIRKYKATRVSIDSVTAVFQQYDAASVVRREIFRLAFRLKQLGVTTIMTTERVDEYGPVARFGVEEFVSDNVVILRNVLEGERRRRTVEILKLRGTTHMKGEYPFTINNGINIFPLGAMRLTQRSSNVRVSSGVKTLDEMCGGGFFKDSIILATGATGTGKTLLVSKFLETGCQQGERALLFAYEESRAQLSRNASSWGIDFEELERRGLLRIICAYPESAGLEDHLQIIKSEIADFKPSRVAIDSLSALARGVSNNAFRQFVIGVTGFAKQEEITGFFTNTTDQFMGSNSITESHIDDITDTILLLQYVEIRGEMSRAINVFKMRGSWHDKGIREYVITEKGAEIRDSFRNFEGIISGTPTRISVDEKTELARIAKGMQDLESE
notes: KaiC, Thermosynechococcus elongatus (strain BP-1), Ser431 and Thr432 substituted by aspartate (mimics the fully phosphorylated form); Seen as a homohexamer by native MS; also called TeKaiCDD homohexamer; source: E. coli, GST-tagged, purified after cleavage of the GST-tag

Columns and labels:
[1] = molecular target: the molecule itself; test: native MS; TeKaiCDD (20 µM) titrated with KaiB or SasA proteins, incubated at 37 °C for 6 h, buffer-exchanged into 150 mM ammonium acetate, pH 6.8; nanoflow ESI
[2] = molecular target: B1; test: as above; conditions: both partners purified
[3] = molecular target: the molecule itself; test: SEC; Superdex 200 increase; 20 mM Tris-HCl (pH 8.0), 150 mM NaCl, 5 mM MgCl2, 0.5 mM EDTA, 1 mM DTT; TeKaiB or TeKaiBDD in the absence of KaiC

Binder	stoichiometry N [2]	stoichiometry N [3]	also measured
B1	–	–	stoichiometry N [1]: 6
TeKaiB_(10–108), N-terminal truncated mutant of T. elongatus KaiB (domain or fragment, Thermosynechococcus elongatus, UniProt Q79V61 10-108, looked up, KaiB, Thermosynechococcus elongatus (strain BP-1), residues 10-108 (N-terminal segment deleted); source: E. coli, GST-tagged, purified after cleavage of the GST-tag) LKLYVAGNTPNSVRALKTLNNILEKEFKGVYALKVIDVLKNPQLAEEDKILATPTLAKVLPPPVRRIIGDLSNREKVLIGLDLLYEEIGDQAEDDLGLE	6 binder chains per KaiC hexamer	–	–
TeKaiB_(10–108/DD), TeKaiB_(10–108) with Arg23 and Lys26 replaced with aspartate (domain or fragment, Thermosynechococcus elongatus, UniProt Q79V61 10-108, looked up, KaiB, Thermosynechococcus elongatus (strain BP-1), residues 10-108, Arg23 and Lys26 substituted with aspartate; source: E. coli, GST-tagged, purified after cleavage of the GST-tag) LKLYVAGNTPNSVDALDTLNNILEKEFKGVYALKVIDVLKNPQLAEEDKILATPTLAKVLPPPVRRIIGDLSNREKVLIGLDLLYEEIGDQAEDDLGLE	1 binder chains per KaiC hexamer and 3 binder chains per KaiC hexamer and 2 binder chains per KaiC hexamer	–	–
TeKaiB, wild-type T. elongatus KaiB (natural protein, Thermosynechococcus elongatus, UniProt Q79V61 1-108, looked up, KaiB, Thermosynechococcus elongatus (strain BP-1), wild type; source: E. coli, GST-tagged, purified after cleavage of the GST-tag) MAPLRKTYVLKLYVAGNTPNSVRALKTLNNILEKEFKGVYALKVIDVLKNPQLAEEDKILATPTLAKVLPPPVRRIIGDLSNREKVLIGLDLLYEEIGDQAEDDLGLE	–	4	–
TeKaiBDD, TeKaiB with the DD mutation (Arg23 and Lys26 to aspartate) (natural protein, Thermosynechococcus elongatus, UniProt Q79V61 1-108, looked up, KaiB, Thermosynechococcus elongatus (strain BP-1), Arg23 and Lys26 substituted with aspartate; Named only in the SEC methods; source: E. coli, GST-tagged, purified after cleavage of the GST-tag) MAPLRKTYVLKLYVAGNTPNSVDALDTLNNILEKEFKGVYALKVIDVLKNPQLAEEDKILATPTLAKVLPPPVRRIIGDLSNREKVLIGLDLLYEEIGDQAEDDLGLE	–	4	–
